Test results reported in paper PMC7692627.

B1: F17 (ssDNA)
DNA: TGACACCGTACCTGCTCTGCCGTAGTGATCCTCCTTAACAGTGACCTATAGATCGTTCGTCGTATTTGCTTTGACAATCCTTCTCAGATACTCTCCCGAAGCACGCCAGGGACTAT
B2: R13 (ssDNA)
DNA: ATAGTCCCTGGCGTGCTTGCATGCTTGGCCCTGCACCGCCTTCGGTCTTTCGCCGACCTCGTCGTTTATTCTATCGGGTTATAAGGATAATGCGGGGTAGAGCAGGTACGGTGTCA

Biological target: His-P10 outer capsid protein (Rice black-streaked dwarf virus (RBSDV), UniProt D2Y4Q6 1-558)
Test: ELONA
Conditions: protein: recombinant; tags: N-terminal 6xHis (pET-15b)

| Binder | binding signal |
| --- | --- |
| B1 | 7.55 A450 ratio P10/BSA |
| B2 | 1.26 A450 ratio P10/BSA |
